Assay results from US20230220021A1 (UNIVERSITY OF COPENHAGEN, published 2023).
Bridges are numbered along the chain shown (N, C = ends). [ ]: non-standard residue; d: D form.

B1: cyclic nNOS β-hairpin peptide T119A (peptide)
peptide: cyclo(THLETTFTGDGTPKAIRVTQ[dP]GQ)
SMILES: CC[C@H](C)[C@@H]1NC(=O)[C@H](C)NC(=O)[C@H](CCCCN)NC(=O)[C@@H]2CCCN2C(=O)[C@H]([C@@H](C)O)NC(=O)CNC(=O)[C@H](CC(=O)O)NC(=O)CNC(=O)[C@H]([C@@H](C)O)NC(=O)[C@H](Cc2ccccc2)NC(=O)[C@H]([C@@H](C)O)NC(=O)[C@H]([C@@H](C)O)NC(=O)[C@H](CCC(=O)O)NC(=O)[C@H](CC(C)C)NC(=O)[C@H](Cc2c[nH]cn2)NC(=O)[C@H]([C@@H](C)O)NC(=O)[C@H](CCC(N)=O)NC(=O)CNC(=O)[C@H]2CCCN2C(=O)[C@H](CCC(N)=O)NC(=O)[C@H]([C@@H](C)O)NC(=O)[C@H](C(C)C)NC(=O)[C@H](CCCNC(=N)N)NC1=O
B2: cyclic nNOS β-hairpin peptide T123A (peptide)
peptide: cyclo(THLETTFTGDGTPKTIRVAQ[dP]GQ)
SMILES: CC[C@H](C)[C@@H]1NC(=O)[C@H]([C@@H](C)O)NC(=O)[C@H](CCCCN)NC(=O)[C@@H]2CCCN2C(=O)[C@H]([C@@H](C)O)NC(=O)CNC(=O)[C@H](CC(=O)O)NC(=O)CNC(=O)[C@H]([C@@H](C)O)NC(=O)[C@H](Cc2ccccc2)NC(=O)[C@H]([C@@H](C)O)NC(=O)[C@H]([C@@H](C)O)NC(=O)[C@H](CCC(=O)O)NC(=O)[C@H](CC(C)C)NC(=O)[C@H](Cc2c[nH]cn2)NC(=O)[C@H]([C@@H](C)O)NC(=O)[C@H](CCC(N)=O)NC(=O)CNC(=O)[C@H]2CCCN2C(=O)[C@H](CCC(N)=O)NC(=O)[C@H](C)NC(=O)[C@H](C(C)C)NC(=O)[C@H](CCCNC(=N)N)NC1=O
B3: cyclic nNOS β-hairpin peptide V122A (peptide)
peptide: cyclo(THLETTFTGDGTPKTIRATQ[dP]GQ)
SMILES: CC[C@H](C)[C@@H]1NC(=O)[C@H]([C@@H](C)O)NC(=O)[C@H](CCCCN)NC(=O)[C@@H]2CCCN2C(=O)[C@H]([C@@H](C)O)NC(=O)CNC(=O)[C@H](CC(=O)O)NC(=O)CNC(=O)[C@H]([C@@H](C)O)NC(=O)[C@H](Cc2ccccc2)NC(=O)[C@H]([C@@H](C)O)NC(=O)[C@H]([C@@H](C)O)NC(=O)[C@H](CCC(=O)O)NC(=O)[C@H](CC(C)C)NC(=O)[C@H](Cc2c[nH]cn2)NC(=O)[C@H]([C@@H](C)O)NC(=O)[C@H](CCC(N)=O)NC(=O)CNC(=O)[C@H]2CCCN2C(=O)[C@H](CCC(N)=O)NC(=O)[C@H]([C@@H](C)O)NC(=O)[C@H](C)NC(=O)[C@H](CCCNC(=N)N)NC1=O
B4: cyclic nNOS β-hairpin peptide N-Me-V122 (peptide)
peptide: THLETTFTGDGTPKTIRXTQPGQ
modifications: cyclic; D-Pro; N-methyl Val 122
B5: cyclic nNOS β-hairpin peptide N-Me-I120 (peptide)
peptide: THLETTFTGDGTPKTXRVTQPGQ
modifications: cyclic; D-Pro; N-methyl Ile 120
B6: cyclic nNOS β-hairpin peptide N-Me-T123 (peptide)
peptide: THLETTFTGDGTPKTIRVXQPGQ
modifications: cyclic; D-Pro; N-methyl Thr 123
B7: cyclic nNOS β-hairpin peptide N-Me-T116 (peptide)
peptide: THLETTFTGDGXPKTIRVTQPGQ
modifications: cyclic; D-Pro; N-methyl Thr 116
B8: cyclic nNOS β-hairpin peptide N-Me-Q124 (peptide)
peptide: THLETTFTGDGTPKTIRVTXPGQ
modifications: cyclic; D-Pro; N-methyl Gln 124
B9: cyclic nNOS β-hairpin peptide N-Me-T105 (peptide)
peptide: XHLETTFTGDGTPKTIRVTQPGQ
modifications: cyclic; D-Pro; N-methyl Thr 105
B10: cyclic nNOS β-hairpin peptide N-Me-G113 (peptide)
peptide: THLETTFTXDGTPKTIRVTQPGQ
modifications: cyclic; D-Pro; N-methyl Gly 113
B11: cyclic nNOS β-hairpin peptide N-Me-T112 (peptide)
peptide: THLETTFXGDGTPKTIRVTQPGQ
modifications: cyclic; D-Pro; N-methyl Thr 112
B12: cyclic nNOS β-hairpin peptide N-Me-T110 (peptide)
peptide: THLETXFTGDGTPKTIRVTQPGQ
modifications: cyclic; D-Pro; N-methyl Thr 110
B13: cyclic nNOS β-hairpin peptide N-Me-G115 (peptide)
peptide: THLETTFTGDXTPKTIRVTQPGQ
modifications: cyclic; D-Pro; N-methyl Gly 115
B14: cyclic nNOS β-hairpin peptide N-Me-R121 (peptide)
peptide: THLETTFTGDGTPKTIXVTQPGQ
modifications: cyclic; D-Pro; N-methyl Arg 121
B15: cyclic nNOS β-hairpin peptide N-Me-D114 (peptide)
peptide: THLETTFTGXGTPKTIRVTQPGQ
modifications: cyclic; D-Pro; N-methyl Asp 114
B16: cyclic nNOS β-hairpin peptide N-Me-K118 (peptide)
peptide: THLETTFTGDGTPXTIRVTQPGQ
modifications: cyclic; D-Pro; N-methyl Lys 118
B17: cyclic nNOS β-hairpin peptide N-Me-T119 (peptide)
peptide: THLETTFTGDGTPKXIRVTQPGQ
modifications: cyclic; D-Pro; N-methyl Thr 119
B18: cyclic nNOS β-hairpin peptide AlloT105 (peptide)
peptide: XHLETTFTGDGTPKTIRVTQPGQ
modifications: cyclic; D-Pro; allo-Thr at 105
B19: cyclic nNOS β-hairpin peptide AlloT110 (peptide)
peptide: THLETXFTGDGTPKTIRVTQPGQ
modifications: cyclic; D-Pro; allo-Thr at 110
B20: cyclic nNOS β-hairpin peptide ΔT112 (peptide)
peptide: cyclo(THLETTFGDGTPKTIRVTQ[dP]GQ)
SMILES: CC[C@H](C)[C@@H]1NC(=O)[C@H]([C@@H](C)O)NC(=O)[C@H](CCCCN)NC(=O)[C@@H]2CCCN2C(=O)[C@H]([C@@H](C)O)NC(=O)CNC(=O)[C@H](CC(=O)O)NC(=O)CNC(=O)[C@H](Cc2ccccc2)NC(=O)[C@H]([C@@H](C)O)NC(=O)[C@H]([C@@H](C)O)NC(=O)[C@H](CCC(=O)O)NC(=O)[C@H](CC(C)C)NC(=O)[C@H](Cc2c[nH]cn2)NC(=O)[C@H]([C@@H](C)O)NC(=O)[C@H](CCC(N)=O)NC(=O)CNC(=O)[C@H]2CCCN2C(=O)[C@H](CCC(N)=O)NC(=O)[C@H]([C@@H](C)O)NC(=O)[C@H](C(C)C)NC(=O)[C@H](CCCNC(=N)N)NC1=O
B21: cyclic nNOS β-hairpin peptide ΔD114 (peptide)
peptide: cyclo(THLETTFTGGTPKTIRVTQ[dP]GQ)
SMILES: CC[C@H](C)[C@@H]1NC(=O)[C@H]([C@@H](C)O)NC(=O)[C@H](CCCCN)NC(=O)[C@@H]2CCCN2C(=O)[C@H]([C@@H](C)O)NC(=O)CNC(=O)CNC(=O)[C@H]([C@@H](C)O)NC(=O)[C@H](Cc2ccccc2)NC(=O)[C@H]([C@@H](C)O)NC(=O)[C@H]([C@@H](C)O)NC(=O)[C@H](CCC(=O)O)NC(=O)[C@H](CC(C)C)NC(=O)[C@H](Cc2c[nH]cn2)NC(=O)[C@H]([C@@H](C)O)NC(=O)[C@H](CCC(N)=O)NC(=O)CNC(=O)[C@H]2CCCN2C(=O)[C@H](CCC(N)=O)NC(=O)[C@H]([C@@H](C)O)NC(=O)[C@H](C(C)C)NC(=O)[C@H](CCCNC(=N)N)NC1=O
B22: cyclic nNOS β-hairpin peptide ΔT116 (peptide)
peptide: cyclo(THLETTFTGDGPKTIRVTQ[dP]GQ)
SMILES: CC[C@H](C)[C@@H]1NC(=O)[C@H]([C@@H](C)O)NC(=O)[C@H](CCCCN)NC(=O)[C@@H]2CCCN2C(=O)CNC(=O)[C@H](CC(=O)O)NC(=O)CNC(=O)[C@H]([C@@H](C)O)NC(=O)[C@H](Cc2ccccc2)NC(=O)[C@H]([C@@H](C)O)NC(=O)[C@H]([C@@H](C)O)NC(=O)[C@H](CCC(=O)O)NC(=O)[C@H](CC(C)C)NC(=O)[C@H](Cc2c[nH]cn2)NC(=O)[C@H]([C@@H](C)O)NC(=O)[C@H](CCC(N)=O)NC(=O)CNC(=O)[C@H]2CCCN2C(=O)[C@H](CCC(N)=O)NC(=O)[C@H]([C@@H](C)O)NC(=O)[C@H](C(C)C)NC(=O)[C@H](CCCNC(=N)N)NC1=O
B23: cyclic nNOS β-hairpin peptide AlloT119 (peptide)
peptide: THLETTFTGDGTPKXIRVTQPGQ
modifications: cyclic; D-Pro; allo-Thr at 119
B24: cyclic nNOS β-hairpin peptide pT123 (peptide)
peptide: THLETTFTGDGTPKTIRVXQPGQ
modifications: cyclic; D-Pro; phospho-Thr 123
B25: cyclic nNOS β-hairpin peptide pT105 (peptide)
peptide: XHLETTFTGDGTPKTIRVTQPGQ
modifications: cyclic; D-Pro; phospho-Thr 105
B26: cyclic nNOS β-hairpin peptide pT116 (peptide)
peptide: THLETTFTGDGXPKTIRVTQPGQ
modifications: cyclic; D-Pro; phospho-Thr 116
B27: cyclic nNOS β-hairpin peptide pT112 (peptide)
peptide: THLETTFXGDGTPKTIRVTQPGQ
modifications: cyclic; D-Pro; phospho-Thr 112
B28: Cyclo-(C105THLETTFTGDGTPKTIRVTQ124pG), NCL (peptide)
peptide: cyclo(CTHLETTFTGDGTPKTIRVTQ[dP]G)
notes: also called NCL peptide
B29: Cyclo-(Ac105…124pGC), Thioether (peptide)
peptide: XHLETTFTGDGTPKTIRVTQPGC
modifications: cyclic by thioether (N-terminal acetyl to Cys); D-Pro
notes: also called thioether bridged analogue
B30: Cyclo-(105THLETTFTGDGTPKTIRVTQ124pG(Dγ)), Asp side-chain lactam (peptide)
peptide: THLETTFTGDGTPKTIRVTQ[dP]GD-NH2
modifications: lactam N-23
B31: Cyclo-(105THLETTFTGDGTPKTIRVTQ124pG(Eγ)), Glu side-chain lactam (peptide)
peptide: THLETTFTGDGTPKTIRVTQ[dP]GE-NH2
modifications: lactam N-23

Each binder was assayed against T1, (7× His)-PSD-95-PDZ2 wild type (UniProt P78352 160-246) (assay: FP competition).
T1 construct: domain: PDZ2; recombinant from E. coli; also called PSD-95-PDZ2 WT; not shown: 7x His tag
T1 sequence (P78352 160-246): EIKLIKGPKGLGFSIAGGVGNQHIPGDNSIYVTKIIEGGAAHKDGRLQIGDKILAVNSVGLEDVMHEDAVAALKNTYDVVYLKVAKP

For B1, which Ki is on record?
Its Ki is 17000 nM.

And the “Relative Ki (Ki mut/Ki WT)” value?
Its value is 11.3.

How did the Ki turn out when B2 was run?
Its Ki is 1550 nM.

What about the “Relative Ki (Ki mut/Ki WT)” value of the same binder?
The value was 1.03.

What does the source list for B3?
Ki: 2230 nM; Relative Ki (Ki mut/Ki WT): 1.49

Target: T1, (7× His)-PSD-95-PDZ2 wild type
Assay: FP competition
Remark: another data set of the same source
Protocol: (§1) Fluorescence polarization (FP). FP assays were performed in a 384-well plate format. Fluorescence polarization was measured using a Safire 2 plate reader. The instrument Z-factor was optimized for each assay. The G-factor was calibrated to an initial milli polarization value of 20. […] Every measurement was performed in NaPI 50 mM, 50 mM NaCl and 1% BSA at pH 7.2, 25° C. […] The curves were done in triplicates. Then, the polarization was fitted into a one-site binding model using Prism software 8.0 (GraphPad), from which the Kd can be measured. […] The mili polarization (mP) values were plotted as a function of peptide concentration and fitted to a sigmoidal dose-response curve using Prism software 8.0 (GraphPad). The Kᵢ values were calculated according to Nikolovska-Coleska Z. et al.⁴⁰⁻⁴¹

B4 was tested. Which Ki did it give?
The Ki was 6170 nM.

For B5, which Ki is on record?
The Ki was 1120 nM.

With B6 as the binder, how does the Ki read?
Its Ki is 580 nM.

Which Ki does the source give for B7 here?
The Ki was 930 nM.

B8 was tested. Which Ki did it give?
Its Ki is 2200 nM.

With B9 as the binder, how does the Ki read?
Its Ki is 4800 nM.

B10 was tested. Which Ki did it give?
Its Ki is 6190 nM.

For B11, which Ki is on record?
Its Ki is 1080 nM.

Which Ki does the source give for B12 here?
Its Ki is 1470 nM.

Which Ki does the source give for B13 here?
Its Ki is 820 nM.

B14 was tested. Which Ki did it give?
Its Ki is 990 nM.

How did the Ki turn out when B15 was run?
The Ki was 620 nM.

How did the Ki turn out when B16 was run?
The Ki was 480 nM.

B17 was tested. Which Ki did it give?
The Ki was 4880 nM.

Target: T1, (7× His)-PSD-95-PDZ2 wild type
Assay: FP competition
Remark: another data set of the same source
Protocol: Fluorescence polarization (FP). FP assays were performed in a 384-well plate format. Fluorescence polarization was measured using a Safire 2 plate reader. The instrument Z-factor was optimized for each assay. The G-factor was calibrated to an initial milli polarization value of 20. […] Every measurement was performed in NaPI 50 mM, 50 mM NaCl and 1% BSA at pH 7.2, 25° C. […] The curves were done in triplicates. […] The mili polarization (mP) values were plotted as a function of peptide concentration and fitted to a sigmoidal dose-response curve using Prism software 8.0 (GraphPad). The Kᵢ values were calculated according to Nikolovska-Coleska Z. et al.⁴⁰⁻⁴¹

How did the Ki turn out when B18 was run?
The Ki was 2650 nM.

With B19 as the binder, how does the Ki read?
The Ki was 2290 nM.

Which Ki does the source give for B20 here?
The Ki was 690 nM.

B21 was tested. Which Ki did it give?
Its Ki is 700 nM.

With B22 as the binder, how does the Ki read?
Its Ki is 1430 nM.

With B23 as the binder, how does the Ki read?
Its Ki is 8990 nM.

Target: T1, (7× His)-PSD-95-PDZ2 wild type
Assay: FP competition
Remark: another data set of the same source
Protocol: Fluorescence polarization (FP). FP assays were performed in a 384-well plate format. Fluorescence polarization was measured using a Safire 2 plate reader. The instrument Z-factor was optimized for each assay. The G-factor was calibrated to an initial milli polarization value of 20. […] Every measurement was performed in NaPI 50 mM, 50 mM NaCl and 1% BSA at pH 7.2, 25° C. […] The curves were done in triplicates. […] The mili polarization (mP) values were plotted as a function of peptide concentration and fitted to a sigmoidal dose-response curve using Prism software 8.0 (GraphPad).
Data was collected in triplicates and is presented as mean of Kᵢ values±SEM

For B24, which Ki is on record?
Its Ki is 1150 nM.

With B25 as the binder, how does the Ki read?
The Ki was 2930 nM.

For B26, which Ki is on record?
The Ki was 210 nM.

How did the Ki turn out when B27 was run?
The Ki was 2680 nM.

Target: T1, (7× His)-PSD-95-PDZ2 wild type
Assay: FP competition
Remark: another data set of the same source
Protocol: as §1

B6 was tested. Which fold improved affinity did it give?
Its fold improved affinity is 2 fold.

Which “fold decrease in affinity” value does the source give for B9 here?
Its value is 5 fold.

For B16, which fold improved affinity is on record?
The fold improved affinity was 2 fold.

Target: T1, (7× His)-PSD-95-PDZ2 wild type
Assay: FP competition
Remark: another data set of the same source
Protocol: as §1

B28 was tested. Which Ki did it give?
Its Ki is 1010 nM.

With B29 as the binder, how does the Ki read?
The Ki was 4800 nM.

With B30 as the binder, how does the Ki read?
The Ki was 4290 nM.

With B31 as the binder, how does the Ki read?
The Ki was 3600 nM.
